Among the data in article PMC7921949 are Kd values, retold here.

This data set concerns the target PD-L1 on CT26 murine colon cancer cells (mouse (CT26)) (UniProt Q9EP73). Description: flow cytometry on CT26 cells. As to conditions: apparent Kd on whole cells, PBS, room temperature, 30 min, 2x10^5 CT26 cells in 250 uL, three PBS washes, Y = Bmax X/(Kd + X), n = 2.

Sequence of PD-L1 on CT26 murine colon cancer cells (mouse (CT26)) (Q9EP73 19-290): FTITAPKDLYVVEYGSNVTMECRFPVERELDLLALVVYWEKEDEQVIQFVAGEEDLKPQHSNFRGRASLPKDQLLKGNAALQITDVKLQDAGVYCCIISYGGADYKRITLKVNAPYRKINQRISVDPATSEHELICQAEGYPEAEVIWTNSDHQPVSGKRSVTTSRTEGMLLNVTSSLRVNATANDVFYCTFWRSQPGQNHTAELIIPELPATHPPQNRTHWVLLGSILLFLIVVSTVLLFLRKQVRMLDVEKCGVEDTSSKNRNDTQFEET

Regarding “ACGGGCCACATCAACTCATTGATAGACAATGCGTCCACTGCCCGT [free PD-L1 aptamer (Apt)]”, the Kd was found to be 283 nM.

Consider “CGGCGATCCGGCCATAGTGGATTGCGGGCCAGTGAAAAAAACGGGCCACATCAACTCATTGATAGACAATGCGTCCACTGCCCGT / CTCACTGGCCCGCAATCCTGAGCACGTGGCTGACGAAAAAACGGGCCACATCAACTCATTGATAGACAATGCGTCCACTGCCCGT / CCGTCAGCCACGTGCTCACCGAATGCTGCGCAACCAAAAAACGGGCCACATCAACTCATTGATAGACAATGCGTCCACTGCCCGT / CGGTTGCGCAGCATTCGGACTATGGCCGGATCGCCAAAAAACGGGCCACATCAACTCATTGATAGACAATGCGTCCACTGCCCGT [Apt-HJ (tetravalent aptamer Holliday junction)]”, for which the Kd (tetravalent, first nt at 5' end of each strand phosphorothioate in some Apt-HJ, unclear for binding assay) came to 145 nM.
